Assay [1] deals with V5-Myc, murine c-Myc mutant 20-AAAI (murine) (UniProt P01108). As to the kind of experiment: co-IP.
The target of assay [2] is V5-Myc, murine c-Myc mutant 20-PAAA (murine) (UniProt P01108). Description: co-IP.
The target of assay [3] is V5-Myc, murine c-Myc mutant 20-PAAI (murine) (UniProt P01108). Description: co-IP.
In assay [4] the target is c-Myc_(1–88) c-Myc-20-PYFY/AAAA-23 mutant (human) (UniProt P01106). Description: SPR. (SPR reads the build-up and loss of mass on a sensor chip optically.)

Consider two substances from article PMC4807222.

pKd: −log10 of the molar value. Bounds are passed on as bounds.

Sequence of Flag-tagged Pin1 (co-immunoprecipitation) (Q13526 whole entry): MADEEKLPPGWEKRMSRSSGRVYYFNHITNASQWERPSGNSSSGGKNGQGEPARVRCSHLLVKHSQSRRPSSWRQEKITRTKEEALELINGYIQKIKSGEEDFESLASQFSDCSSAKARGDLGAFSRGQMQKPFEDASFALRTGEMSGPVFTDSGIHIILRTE
Sequence of full-length Pin1 (1–163) (Q13526 whole entry): as above
Sequence of V5-Myc, murine c-Myc mutant 20-PAAI (murine) (P01108 whole entry, change not shown): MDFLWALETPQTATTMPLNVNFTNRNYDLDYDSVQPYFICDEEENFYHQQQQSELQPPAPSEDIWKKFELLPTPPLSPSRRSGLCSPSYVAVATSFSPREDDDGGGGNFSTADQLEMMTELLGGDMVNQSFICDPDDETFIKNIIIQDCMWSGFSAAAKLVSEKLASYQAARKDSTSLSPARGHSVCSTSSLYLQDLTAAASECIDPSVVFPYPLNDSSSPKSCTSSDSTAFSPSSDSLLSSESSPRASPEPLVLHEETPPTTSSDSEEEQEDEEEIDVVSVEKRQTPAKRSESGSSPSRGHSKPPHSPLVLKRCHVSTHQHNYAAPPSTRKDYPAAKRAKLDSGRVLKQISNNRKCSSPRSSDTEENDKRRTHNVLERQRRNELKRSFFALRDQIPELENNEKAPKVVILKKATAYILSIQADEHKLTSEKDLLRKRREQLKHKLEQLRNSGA
Sequence of V5-Myc, murine c-Myc mutant 20-PAAA (murine) (P01108 whole entry, change not shown): as above
Sequence of V5-Myc, murine c-Myc mutant 20-AAAI (murine) (P01108 whole entry, change not shown): as above

For the substance “Flag-tagged Pin1 (co-immunoprecipitation) (from UniProt Q13526 1-163) (enzyme)”, the percent reduction of co-immunoprecipitated Pin1 against wild type in assay [1], in assay [2] and in assay [3] was above 50% in each case.

For orientation: pKd means the negative decadic logarithm of the Kd, by convention in mol/L. A high value points to a small Kd. The substance “full-length Pin1 (1–163) (from UniProt Q13526 1-163) (enzyme)” had a pKd in assay [4] of 4.82.
